Reference: the supplement of paper PMC10598134
± gives the standard deviation.

Assay: collision cross section of modified peptide (TIMS, N2, iRT-aligned); higher = larger / more extended gas-phase ion
Summary of the method: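 Values are averages of 1–3 technical replicates of the most abundant feature for each charge state. Collision cross section was obtained from the Mason-Schamp equation after 1/K0 calibration with three reference ions and run-wise alignment to the median iRT peptide deviation. Synthetic peptide pools (iRT standard spiked 1:40) were separated on a 120-min nanoflow C18 gradient at 60 °C, analysed on a timsTOF Pro/HT (dda-PASEF, nitrogen, ~2.4 mbar) and identified with MaxQuant.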

[1] = charge state: 3, modification: Glutarylation
[2] = charge state: 2, modification: Formyl
[3] = charge state: 3, modification: Formyl
[4] = charge state: 2, modification: hydroxyisobutyryl
[5] = charge state: 3, modification: hydroxyisobutyryl
[6] = charge state: 2, modification: Succinyl
[7] = charge state: 2, modification: GlyGly (K)
[8] = charge state: 3, modification: GlyGly (K)
[9] = charge state: 2, modification: Propionyl
[10] = charge state: 2, modification: Trimethyl (K)
[11] = charge state: 3, modification: Trimethyl (K)
[12] = charge state: 2, modification: Glutarylation
[13] = charge state: 2, modification: Acetyl (K)
[14] = charge state: 3, modification: Acetyl (K)
[15] = charge state: 2, modification: Dimethyl (K)
[16] = charge state: 3, modification: Dimethyl (K)
[17] = charge state: 2, modification: Methyl (K)
[18] = charge state: 3, modification: Methyl (K)
[19] = charge state: 2, modification: Malonyl
[20] = charge state: 2, modification: Methyl (R)
[21] = charge state: 2, modification: Crotonyl
[22] = charge state: 3, modification: Propionyl
[23] = charge state: 2, modification: Butyryl
[24] = charge state: 3, modification: Butyryl
[25] = charge state: 3, modification: Methyl (R)

Sequence: TFGKAAGPSLSHTSGGTQSK [_TFGK(Gluratylation)AAGPSLSHTSGGTQSK_]
- collision cross section [1]: 518.15 ± 2 Å²

Sequence: DYSAPVNFISAGLKK [_DYSAPVNFISAGLK(Formyl)K_]
- collision cross section [2]: 433.25 ± 0.72 Å²
- collision cross section [3]: 526.56 ± 0.68 Å²

Sequence: SLGEPAAGEGSAKR [_SLGEPAAGEGSAK(hydroxyisobutyryl)R_]
- collision cross section [4]: 389.47 ± 1.5 Å²
- collision cross section [5]: 485.86 ± 2.8 Å²

Sequence: DSSPTTNSKLSALQR [_DSSPTTNSK(Succinyl)LSALQR_]
- collision cross section [6]: 428.81 ± 1.1 Å²
- collision cross section (charge state: 3, modification: Succinyl): 496.14 ± 4.3 Å²

Sequence: TQDQISNIKYHEEFEK [_TQDQISNIK(Formyl)YHEEFEK_]
- collision cross section [3]: 551.65 ± 1.7 Å²

Sequence: AAINQKLIETGER [_AAINQK(GlyGly (K))LIETGER_]
- collision cross section [7]: 412.96 ± 0.98 Å²
- collision cross section [8]: 477.22 ± 1.3 Å²

Sequence: SLEEEGAAHSGKR [_SLEEEGAAHSGK(GlyGly (K))R_]
- collision cross section [7]: 418.89 ± 1.9 Å²
- collision cross section [8]: 473.02 ± 0.33 Å²

Sequence: DKALPLEAEVAPVK [_DK(Propionyl)ALPLEAEVAPVK_]
- collision cross section [9]: 410.19 Å²

Sequence: VNALKNLQVK [_VNALK(Trimethyl (K))NLQVK_]
- collision cross section [10]: 379.91 ± 0.019 Å²
- collision cross section [11]: 418.46 ± 2.4 Å²

Sequence: IVSGKDYNVTANSK [_IVSGK(Gluratylation)DYNVTANSK_]
- collision cross section [12]: 417.68 ± 1.5 Å²
- collision cross section [1]: 473.57 ± 2.4 Å²

Sequence: VETTVTSLKTK [_VETTVTSLK(Trimethyl (K))TK_]
- collision cross section [10]: 391.95 ± 0.62 Å²
- collision cross section [11]: 455.28 ± 8.1 Å²

Sequence: PGGEGPQCEKTTDVK [_PGGEGPQCEK(Gluratylation)TTDVK_]
- collision cross section [12]: 428.07 ± 0.56 Å²

Sequence: FYTEDSPGLK [_FY(Phospho (Y))TEDSPGLK_]
- collision cross section (charge state: 2, modification: Phospho (Y)): 366.92 ± 0.064 Å²

Sequence: ANLEKAQAELVGTADEATR [_ANLEK(GlyGly (K))AQAELVGTADEATR_]
- collision cross section [7]: 487.2 ± 1.5 Å²
- collision cross section [8]: 513.9 ± 1.3 Å²

Sequence: VILENIASHEPR [_VILENIAS(HexNAc (ST))HEPR_]
- collision cross section (charge state: 2, modification: HexNAc (ST)): 443 ± 0.62 Å²
- collision cross section (charge state: 3, modification: HexNAc (ST)): 492.7 ± 0.18 Å²

Sequence: YEQEHAAIQDKLFQVAK [_YEQEHAAIQDK(Trimethyl (K))LFQVAK_]
- collision cross section [11]: 561.55 ± 0.91 Å²

Sequence: DLSTVEALQNLKNLK [_DLSTVEALQNLK(Acetyl (K))NLK_]
- collision cross section [13]: 475.96 ± 3.5 Å²
- collision cross section [14]: 544.02 Å²

Sequence: SSFAYKDQNENR [_SSFAYK(Dimethyl (K))DQNENR_]
- collision cross section [15]: 406.82 ± 0.47 Å²
- collision cross section [16]: 455.28 ± 0.51 Å²

Sequence: PANEKATDDYHYEK [_PANEK(Acetyl (K))ATDDYHYEK_]
- collision cross section [13]: 436.41 ± 2.5 Å²
- collision cross section [14]: 502.57 ± 2 Å²

Sequence: FLQEFYQDDELGKK [_FLQEFYQDDELGK(Methyl (K))K_]
- collision cross section [17]: 445.9 ± 2.4 Å²
- collision cross section [18]: 499.81 ± 3 Å²

Sequence: DLGKFQVATDALK [_DLGK(Dimethyl (K))FQVATDALK_]
- collision cross section [15]: 400.58 ± 0.77 Å²
- collision cross section [16]: 478.59 ± 14 Å²

Sequence: ASDTSSETVFGKR [_ASDTSSETVFGK(Trimethyl (K))R_]
- collision cross section [10]: 414.52 ± 0.6 Å²
- collision cross section [11]: 471.76 ± 2.7 Å²

Sequence: SPPLPEHQKIPCNSAEPK [_SPPLPEHQK(GlyGly (K))IPCNSAEPK_]
- collision cross section [8]: 516.26 Å²

Sequence: GSLEKGSPEDK [_GSLEK(Malonyl)GSPEDK_]
- collision cross section [19]: 365.48 ± 0.011 Å²

Sequence: AQPQDSRGGSK [_AQPQDSR(Methyl (R))GGSK_]
- collision cross section [20]: 351.96 ± 2.1 Å²

Sequence: ASNAAVKLAESK [_ASNAAVK(Formyl)LAESK_]
- collision cross section [2]: 365.07 ± 0.39 Å²

Sequence: SLGEPAAGEGSAKR [_SLGEPAAGEGSAK(Crotonyl)R_]
- collision cross section [21]: 387.18 ± 0.89 Å²
- collision cross section (charge state: 3, modification: Crotonyl): 487.34 ± 1.3 Å²

Sequence: PSVGSQSNQAGQGKR [_PSVGSQSNQAGQGK(Propionyl)R_]
- collision cross section [9]: 412.6 ± 0.64 Å²
- collision cross section [22]: 473.2 ± 1.4 Å²

Sequence: FVDSKVGEFSGANK [_FVDSK(Gluratylation)VGEFSGANK_]
- collision cross section [12]: 419.09 Å²

Sequence: GTVPDDAVEALADSLGKK [_GTVPDDAVEALADSLGK(Butyryl)K_]
- collision cross section [23]: 458.53 ± 0.36 Å²
- collision cross section [24]: 534.24 ± 1.4 Å²

Sequence: PRLPATGTFK [_PR(Methyl (R))LPATGTFK_]
- collision cross section [20]: 353.59 ± 0.84 Å²
- collision cross section [25]: 458.58 ± 3 Å²

Sequence: LLFSNTAAQKLR [_LLFSNTAAQK(Butyryl)LR_]
- collision cross section [23]: 405.4 ± 0.23 Å²
- collision cross section [24]: 483.12 ± 3.2 Å²

Sequence: VNVEAPDVNLEGLGGKLK [_VNVEAPDVNLEGLGGK(hydroxyisobutyryl)LK_]
- collision cross section [4]: 461.55 ± 2 Å²
- collision cross section [5]: 550.67 ± 0.8 Å²

Sequence: GFCFITYTDEEPVKK [_GFCFITYTDEEPVK(Succinyl)K_]
- collision cross section [6]: 465.85 ± 1.1 Å²

Sequence: HIGFVYHPTK [_HIGFVY(Nitro (Y))HPTK_]
- collision cross section (charge state: 2, modification: Nitro (Y)): 375.77 ± 0.17 Å²
- collision cross section (charge state: 3, modification: Nitro (Y)): 448.27 ± 1.8 Å²

Sequence: PSVSTKLISK [_PSVSTK(Propionyl)LISK_]
- collision cross section [9]: 354.68 ± 0.33 Å²

Sequence: SDDESSQKDIK [_SDDESSQK(Crotonyl)DIK_]
- collision cross section [21]: 379.43 ± 0.8 Å²

Sequence: SDDESSQKDIK [_SDDESSQK(Dimethyl (K))DIK_]
- collision cross section [15]: 372.77 ± 1.2 Å²
- collision cross section [16]: 434.93 ± 2.1 Å²

Sequence: TEVLSPNSKVESK [_TEVLSPNSK(Propionyl)VESK_]
- collision cross section [9]: 413.62 ± 0.97 Å²
- collision cross section [22]: 453.73 Å²

Sequence: SGGYGGSRDYYSSR [_SGGYGGSR(Citrullination (R))DYYSSR_]
- collision cross section (charge state: 2, modification: Citrullination (R)): 397.63 ± 1.4 Å²

Sequence: KYEEIDNAPEER [_K(Acetyl (K))YEEIDNAPEER_]
- collision cross section [13]: 408.98 ± 1.6 Å²
- collision cross section [14]: 493.17 ± 8.3 Å²

Sequence: TFGKAAGPSLSHTSGGTQSK [_TFGK(Formyl)AAGPSLSHTSGGTQSK_]
- collision cross section [2]: 488.52 ± 0.72 Å²
- collision cross section [3]: 508.22 ± 1.5 Å²

Sequence: AAQASDLEKIHLDEK [_AAQASDLEK(Malonyl)IHLDEK_]
- collision cross section [19]: 460.56 ± 1.1 Å²
- collision cross section (charge state: 3, modification: Malonyl): 500.48 Å²

Sequence: GGSGGRGVSVSSAR [_GGSGGR(Methyl (R))GVSVSSAR_]
- collision cross section [20]: 384.84 ± 7.6 Å²
- collision cross section [25]: 464.84 ± 13 Å²

Sequence: DTGEKLTVAENEAETK [_DTGEK(Acetyl (K))LTVAENEAETK_]
- collision cross section [13]: 441.95 ± 2.1 Å²
- collision cross section [14]: 512.62 Å²

Sequence: DTPTSAGPNSFNKGK [_DTPTSAGPNSFNK(Trimethyl (K))GK_]
- collision cross section [10]: 411.65 ± 1.2 Å²
- collision cross section [11]: 457.6 ± 1.8 Å²

Sequence: KFGVLSDNFK [_K(Trimethyl (K))FGVLSDNFK_]
- collision cross section [10]: 372.9 ± 0.61 Å²
- collision cross section [11]: 457.56 Å²

Sequence: VNALKNLQVK [_VNALK(Malonyl)NLQVK_]
- collision cross section [19]: 368.09 ± 0.62 Å²

Sequence: LLEQKTQESQK [_LLEQK(Trimethyl (K))TQESQK_]
- collision cross section [10]: 409.98 ± 2.2 Å²
- collision cross section [11]: 452.07 ± 1.5 Å²

Sequence: DTPTSAGPNSFNKGK [_DTPTSAGPNSFNK(Malonyl)GK_]
- collision cross section [19]: 408.63 ± 0.58 Å²

Sequence: ALASIDSKLNQAK [_ALASIDSK(Trimethyl (K))LNQAK_]
- collision cross section [10]: 417.47 ± 0.6 Å²
- collision cross section [11]: 444.8 ± 1.8 Å²

Sequence: DSSPTTNSKLSALQR [_DSSPTTNSK(Methyl (K))LSALQR_]
- collision cross section [17]: 419.3 Å²
- collision cross section [18]: 475.79 ± 3.5 Å²
